Test results as given in patent US6706762, “Methods for the use of inhibitors of co-repressors for the treatment of neoplastic diseases” (The Salk Institute for Biological Studies).

Legend:
[1] = molecular target: RARα/RXRα heterodimer (UniProt P10276;P19793 P10276:1-462,P19793:1-462); assay: EMSA; with GST-SMRT-IDII; SMRT dissociated by ATRA; 100 mM KCl, 16.7 mM Tris pH 7.5, poly(dI:dC), room temperature; conditions: label: 32P
From the text: The protein-DNA complexes were then resolved on a 4.5% native polyacrylamide gel and visualized by autoradiography.

[2] = molecular target: RARα 411/RXRα heterodimer (Homo sapiens, UniProt P10276;P19793 P10276:1-410,P19793:1-462, RARα stop codon introduced at amino acid 411); assay: EMSA; with GST-SMRT-IDII; impaired dissociation of SMRT by ATRA; conditions: label: 32P
RARα 411/RXRα heterodimer, sequence (P10276 1-410, change not shown, chain 1 of 2): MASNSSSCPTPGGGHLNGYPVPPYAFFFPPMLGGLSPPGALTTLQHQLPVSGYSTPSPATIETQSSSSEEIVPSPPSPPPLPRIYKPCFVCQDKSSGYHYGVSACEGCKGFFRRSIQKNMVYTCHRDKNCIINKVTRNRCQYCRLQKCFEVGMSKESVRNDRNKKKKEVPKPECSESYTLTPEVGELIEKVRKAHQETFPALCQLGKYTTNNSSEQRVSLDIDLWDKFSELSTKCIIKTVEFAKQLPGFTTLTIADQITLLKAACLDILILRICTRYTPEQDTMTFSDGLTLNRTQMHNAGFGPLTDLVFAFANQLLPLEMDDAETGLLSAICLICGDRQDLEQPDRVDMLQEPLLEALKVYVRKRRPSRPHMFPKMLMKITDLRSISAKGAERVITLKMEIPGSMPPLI
RARα 411/RXRα heterodimer, sequence (P19793 whole entry, change not shown, chain 2 of 2): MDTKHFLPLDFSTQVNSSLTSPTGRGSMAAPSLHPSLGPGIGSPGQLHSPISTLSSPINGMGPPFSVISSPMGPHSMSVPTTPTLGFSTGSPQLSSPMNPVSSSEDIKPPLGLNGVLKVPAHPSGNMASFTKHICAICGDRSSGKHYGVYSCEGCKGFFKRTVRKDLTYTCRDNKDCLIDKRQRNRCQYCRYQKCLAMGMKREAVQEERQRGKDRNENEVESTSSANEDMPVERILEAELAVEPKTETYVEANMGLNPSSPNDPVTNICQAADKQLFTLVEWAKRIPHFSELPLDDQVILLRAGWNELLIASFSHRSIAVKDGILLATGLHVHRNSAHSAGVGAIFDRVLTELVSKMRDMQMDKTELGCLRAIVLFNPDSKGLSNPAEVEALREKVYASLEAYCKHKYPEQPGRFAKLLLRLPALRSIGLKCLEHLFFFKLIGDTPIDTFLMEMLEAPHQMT

RARα/RXRα heterodimer, sequence (P10276 whole entry, chain 1 of 2): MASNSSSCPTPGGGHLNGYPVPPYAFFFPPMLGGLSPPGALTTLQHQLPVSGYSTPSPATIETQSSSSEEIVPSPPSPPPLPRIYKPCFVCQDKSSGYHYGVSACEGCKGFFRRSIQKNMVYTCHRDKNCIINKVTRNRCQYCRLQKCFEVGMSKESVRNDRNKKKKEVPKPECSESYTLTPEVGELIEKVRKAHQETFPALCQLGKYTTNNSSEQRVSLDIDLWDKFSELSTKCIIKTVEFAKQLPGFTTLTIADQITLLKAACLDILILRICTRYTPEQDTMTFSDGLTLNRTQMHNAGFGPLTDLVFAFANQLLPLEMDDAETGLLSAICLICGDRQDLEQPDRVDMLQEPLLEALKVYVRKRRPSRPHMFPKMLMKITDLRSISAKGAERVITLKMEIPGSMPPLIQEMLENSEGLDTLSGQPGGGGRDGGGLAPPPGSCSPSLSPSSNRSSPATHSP
RARα/RXRα heterodimer, sequence (P19793 whole entry, chain 2 of 2): as the sequence (P19793 whole entry, change not shown, chain 2 of 2) above

B1: DR5 retinoid response element (dsDNA)
DNA 1: TCGACTCAGGTCACCACGAGGTCAGAGTC
DNA 2: GACTCTGACCTCGTGGTGACCTGAGTCGA
[1]
  binding result: binds
[2]
  binding result: binds
